Measurements: article PMC3007124 (Nature cell biology, 2010)

T1: EYFP-LacI-PSP1 (UniProt Q8R326 1-523)
T1 sequence: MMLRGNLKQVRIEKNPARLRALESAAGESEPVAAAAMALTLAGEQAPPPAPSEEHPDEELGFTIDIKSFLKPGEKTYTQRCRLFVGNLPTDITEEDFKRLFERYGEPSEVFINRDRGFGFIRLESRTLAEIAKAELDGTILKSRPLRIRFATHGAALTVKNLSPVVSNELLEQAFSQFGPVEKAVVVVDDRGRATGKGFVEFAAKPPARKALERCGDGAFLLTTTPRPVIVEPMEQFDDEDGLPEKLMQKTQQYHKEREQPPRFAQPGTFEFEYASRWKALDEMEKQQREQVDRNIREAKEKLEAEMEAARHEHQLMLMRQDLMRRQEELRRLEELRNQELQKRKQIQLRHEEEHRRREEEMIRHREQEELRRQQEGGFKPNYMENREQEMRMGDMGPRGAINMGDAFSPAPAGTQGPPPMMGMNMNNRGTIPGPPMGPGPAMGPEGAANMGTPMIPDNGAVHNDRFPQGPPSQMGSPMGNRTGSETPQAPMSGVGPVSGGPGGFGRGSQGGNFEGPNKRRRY

T2: EYFP-LacI-PSF (UniProt Q8VIJ6 1-699)
T2 sequence: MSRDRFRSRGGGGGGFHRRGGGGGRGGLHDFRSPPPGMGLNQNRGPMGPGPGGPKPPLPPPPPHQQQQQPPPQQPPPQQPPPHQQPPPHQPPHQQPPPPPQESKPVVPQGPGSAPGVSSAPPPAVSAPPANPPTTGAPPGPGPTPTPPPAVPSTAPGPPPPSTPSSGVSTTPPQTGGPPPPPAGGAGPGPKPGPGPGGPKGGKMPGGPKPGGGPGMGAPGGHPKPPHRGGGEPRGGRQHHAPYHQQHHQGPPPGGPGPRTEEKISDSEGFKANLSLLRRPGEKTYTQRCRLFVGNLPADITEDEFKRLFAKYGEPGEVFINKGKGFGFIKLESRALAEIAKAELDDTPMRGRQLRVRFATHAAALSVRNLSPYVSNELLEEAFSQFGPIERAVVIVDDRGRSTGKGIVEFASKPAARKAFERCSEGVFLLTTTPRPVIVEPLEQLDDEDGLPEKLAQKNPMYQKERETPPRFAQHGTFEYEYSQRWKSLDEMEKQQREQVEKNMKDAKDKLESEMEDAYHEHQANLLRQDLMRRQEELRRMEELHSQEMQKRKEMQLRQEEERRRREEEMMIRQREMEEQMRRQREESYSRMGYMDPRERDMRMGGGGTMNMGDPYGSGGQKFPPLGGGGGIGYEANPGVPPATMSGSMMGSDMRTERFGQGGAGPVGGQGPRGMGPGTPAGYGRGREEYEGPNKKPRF

B1: mCherry-p54nrb (natural protein)
chain: MQSNKAFNLEKQNHTPRKHHQHHHQQHHQQQQQQQQQQPPPPIPANGQQASSQNEGLTIDLKNFRKPGEKTFTQRSRLFVGNLPPDITEEEMRKLFEKYGKAGEVFIHKDKGFGFIRLETRTLAEIAKVELDNMPLRGKQLRVRFACHSASLTVRNLPQYVSNELLEEAFSVFGQVERAVVIVDDRGRPSGKGIVEFSGKPAARKALDRCSEGSFLLTTFPRPVTVEPMDQLDDEEGLPEKLVIKNQQFHKEREQPPRFAQPGSFEYEYAMRWKALIEMEKQQQDQVDRNIKEAREKLEMEMEAARHEHQVMLMRQDLMRRQEELRRMEELHNQEVQKRKQLELRQEEERRRREEEMRRQQEEMMRRQQEGFKGTFPDAREQEIRMGQMAMGGAMGINNRGAMPPAPVPPGTPAPPGPATMMPDGTLGLTPPTTERFGQAATMEGIGAIGGTPPAFNRPAPGAEFAPNKRRRY
B2: PSP2 (natural protein)
chain: MKIFVGNVDGADTTPEELAALFAPYGTVMSCAVMKQFAFVHMRENAGAVRAIEALHGHELRPGRALVVEMSRPRPLNTWKIFVGNVSAACTSQELRSLFERRGRVIECDVVKDYAFVHMEKEADAKAAIAQLNGKEVKGKRINVELSTKGQKKGPALAIQSGDKTKKPGAGDTAFPGTGGFSATFDYQQAFGNSTGGFDGQARQPTPPFFGRDRSPLRRSPPRASYVAPLTAQPATYRAQPSVSLGAAYRAQPSASLGVGYRTQPMAAQAASYRAQPSVSLGAPYRGQLASPSSQSAAASSLGPYGGVQPSASALSTYGGQAAAASSLNSYGAQGSSLASYGNQPSSYGAQAASSYGVRAAASSYNTQGAASSLGSYGAQAASYGAQSAASSLAYGAQAASYSAQPSASYSAQSAPYAAQQAASYSSQPAAYVAQPATAAAYASQPAAYAAQATTPMAGSYGAQPVVQTQLNSYGAQASIGLSGSYGAQSAAAATGSYGAAAAYGAQPSATLAAPYRTQSSASLAASYAAQQHPQAAASYRGQPGSAYDGTGQPSAAYLSMSQGAVANANSTPPPYERTRLSPPRASYDDPYKKAVAMSKRYGSDRRLAELSDYRRLSESQLSFRRSPTKSSLDYRRLPDAHSDYARYSGSYNDYLRAAQMHSGYQRRM

Assays:
EYFP-LacI-PSP1 = target: T1, EYFP-LacI-PSP1; assay: LacO/LacI tethering in cells, recruitment seen by fluorescence microscopy
EYFP-LacI-PSF = target: T2, EYFP-LacI-PSF; assay: as above

Row | Binder | percent of cells with recruitment to the tethered protein (EYFP-LacI-PSP1) | percent of cells with recruitment to the tethered protein (EYFP-LacI-PSF)
1 | B1 | 87 % of the cells | 
2 | B2 |  | 58 % of the cells
